Data set [1] deals with the molecule itself. Briefly: SEC; Superdex 75 26/60 gel-filtration column in buffer A (25 mM Tris-HCl pH 7.5, 250 mM NaCl, 2 mM EDTA); elution profile. (In general: Size exclusion chromatography separates by hydrodynamic size, large species first.)
Data set [2] concerns the molecule itself. Kind of data set: crystal structure; sitting-drop vapour diffusion, 0.1 M Tris-HCl pH 8.5, 0.2 M sodium acetate, 30% PEG 3350, 11 mM BaCl2, 293 K; orthorhombic P2_1 2_1 2_1 form (1.75 Å, CoA and GlcNAc-6P bound) and hexagonal P6_1 form (1.55 Å, Cys141-CoA adduct); two subunits A and B in each.

B1: Caenorhabditis elegans glucosamine-6-phosphate N-acetyltransferase 1 (enzyme, UniProt Q17427 1-165, looked up)
chain: MSHIFDASVLAPHIPSNLPDNFKVRPLAKDDFSKGYVDLLSQLTSVGNLDQEAFEKRFEAMRTSVPNYHIVVIEDSNSQKVVASASLVVEMKFIHGAGSRGRVEDVVVDTEMRRQKLGAVLLKTLVSLGKSLGVYKISLECVPELLPFYSQFGFQDDCNFMTQRF
notes: glucosamine-6-phosphate N-acetyltransferase 1 (GNA1) of Caenorhabditis elegans, full length, 165 amino acids per monomer; amplified from C. elegans cosmid B0024 DNA; Cloned into pGEX-6P-1 by BamHI and EcoRI; a few vector residues probably remain at the N-terminus after PreScission cleavage (surmised); In the orthorhombic crystal it holds CoA and GlcNAc-6P non-covalently; also called CeGNA1; GNA1; …
Broadly, the stoichiometry N is a count of units in the complex or per binding partner. Turning to B1, the “stoichiometry N” value in data set [1] amounted to 2.

B2: CeGNA1–Cys–CoA adduct (enzyme, Caenorhabditis elegans, UniProt Q17427 1-165, looked up)
chain: MSHIFDASVLAPHIPSNLPDNFKVRPLAKDDFSKGYVDLLSQLTSVGNLDQEAFEKRFEAMRTSVPNYHIVVIEDSNSQKVVASASLVVEMKFIHGAGSRGRVEDVVVDTEMRRQKLGAVLLKTLVSLGKSLGVYKISLECVPELLPFYSQFGFQDDCNFMTQRF
modifications: Cys141 linked by a disulfide to coenzyme A
notes: glucosamine-6-phosphate N-acetyltransferase 1 (GNA1) of Caenorhabditis elegans, full length, 165 amino acids per monomer; same construct as m1; Same polypeptide as m1; differs only by the covalent CoA on Cys141, which DTT releases; also called CeGNA1–CoA adduct; covalent CoA complex; source: E. coli BL21 (DE3) pLysS, purified; adduct formed in the hexagonal (P6_1) crystals grown with acetyl-CoA, …
For the protein B2, in data set [2], the binding result was “binds”.

These data come from article PMC3413214, “Structural and biochemical characterization of a trapped coenzyme A adduct of Caenorhabditis elegans glucosamine-6-phosphate N-acetyltransferase 1” (Acta Crystallographica Section D: Biological Crystallography, 2012).
